These results are taken from article PMC10907219, “Leishmania profilin interacts with actin through an unusual structural mechanism to control cytoskeletal dynamics in parasites” (The Journal of Biological Chemistry, 2024).

B1: Leishmania major profilin (LmProfilin), wild type (natural protein)
chain: SWQAYVDDSLIGSGNMHSAAIIGAADGSYWAYGGSYVPQPEEVQHIQKCLSDFSFVQSSGVNIYGVKFFGLQCGTDGDCKYIFFKKGAAGGCIYTTKQAFIVAVYGNPGDTSSLQQDLEKNTAHAVTVNPADCNTTVKRIADYLIKLGY
notes: Leishmania major profilin, TriTrypDB LmjF.32.0520, UniProt Q4Q5N1; codon-optimised synthetic gene in pCoofy3; also called WT LmProfilin; LmProf-WT; source: E. coli BL21(DE3), purified (Ni-NTA, tag cleavage with 3C-PreScission protease, gel filtration); not shown: His6, N-terminal, cleaved; GST, N-terminal, cleaved

For assay [1], the target named is Leishmania major actin (LmActin), ATP-actin monomer (UniProt P45520). Put plainly: ITC. Conditions: three independent ITC experiments for each protein; parent: 93.5. On the technique in general: In ITC the heat of successive injections is recorded.
Assay [2] addresses Leishmania major actin (LmActin), ATP-actin monomer (Leishmania major) (UniProt P45520). Put plainly: ITC; LmActin (14-19 μM) in the sample cell, profilin (150 μM) in the syringe; 22 °C; G-buffer (2 mM Tris pH 7.5, 0.5 mM β-mercaptoethanol, 0.2 mM CaCl2, 0.2 mM ATP); single set of sites model; three independent experiments.
Assay [3] addresses T1, Leishmania major actin (LmActin), ATP-actin monomer (Leishmania major, UniProt P45520 1-376, ATP-bound with Ca2+ (G-buffer), monomeric; C-terminal beta-thymosin-His10 tag removed by chymotrypsin; initiator Met absent as in the 8C47 entity (equals Q9U1E8 2-376)). The assay can be described thus: crystal structure; LmProfilin and LmActin mixed at ~1:1 molar ratio, 4.5 to 6.5 mg/ml, sitting drop; 0.1 M Bis-Tris pH 5.5, PEG4000 26% (w/v), 0.2 M NaCl; ATP-actin monomer with Ca2+. Conditions: both partners purified.

For assay [4], the target named is T1, Leishmania major actin (LmActin), …. Put plainly: ITC; LmActin (14-19 μM) in the sample cell, profilin (150 μM) in the syringe; 22 °C; G-buffer (2 mM Tris pH 7.5, 0.5 mM β-mercaptoethanol, 0.2 mM CaCl2, 0.2 mM ATP); single set of sites model; three independent experiments. Conditions: both partners purified.
Assay [5] addresses B1. The assay can be described thus: other fluorescence titration; intrinsic tryptophan fluorescence of profilin (1 μM) with 3 to 3156 μM poly-L-proline decamer; room temperature; 20 mM Hepes pH 8.0, 50 mM NaCl; excitation 295 nm; OneSiteBind fit. Particulars: both partners purified.

On to “Leishmania major profilin (LmProfilin), wild type (from UniProt Q4Q5N1) L115S; L119S”, for which the Kd (usually the free concentration of one partner at which half of the binding sites on the other are occupied at equilibrium, for simple one-to-one binding) in assay [1] was 2740 nM.
For “LmProfilin-K68A (from UniProt Q4Q5N1 2-150) (natural protein)”, the Kd in assay [2] came to 3000 nM.
“LmProfilin-WH2-SS (Leu115 and Leu119 replaced by serines) (from UniProt Q4Q5N1 2-150) (natural protein)” showed a fold reduction of affinity against WT profilin in assay [2] of 25 fold.
On to “LmProfilin-Y6A (from UniProt Q4Q5N1 2-150) (natural protein)”, for which the Kd in assay [2] is 90 nM.
“LmProfilin-ΔWH2 (entire WH2-like motif deleted) (from UniProt Q4Q5N1 2-150) (natural protein)”: in assay [2], the fold reduction of affinity against WT profilin stood at 25 fold.
Consider B1, for which the stoichiometry N (commonly the number of molecules, sites or subunits per partner or assembly) in assay [3] came to 1. Besides, the Kd in assay [4] was around 90 nM.

B2: decamer poly-L-proline peptide (peptide)
peptide: PPPPPPPPPP
notes: ten L-prolines written out from these words; also called poly-L-proline decamer; polyproline decamer; source: synthetic peptide, bought: CASLO ApS
For B2, the affinity in assay [5], expressed as Kd, was 263000 nM.
